Laboratory results published in patent US9587002B2, “Sequence of nucleotides and peptides GSE 24.2 of dyskerin, which can induce telomerase activity, method for obtaining same, therapeutic compositions and applications thereof” (CONSEJO SUPERIOR DE INVESTIGACIONES CIENTIFICAS, priority 2005, dated 2017).
Entries after “also recorded” stand apart in the source; their conditions may differ.

Key:
293T cells = test: Cell viability of 293T cell lines treated with cisplatin (crystal violet); assay type: cell-based, human; details: 293T cells stably expressing the construct vs empty vector pLNCX; cisplatin 0-100 μg/ml, 72 hours
Description: FIG. 2.—Cell viability and activation of the JNK and p38 death pathways in 293T cell lines: pLNCX and 24.2, treated with cisplatin. A) Cell viability. After seeding the 293T cells: expressing the empty vector (pLNCX) and GSE 24.2 (24.2) in 24-well plates, they were incubated with concentrations between 0-100 μg/ml of cisplatin. The cell viability was measured by means of the crystal violet technique after 72 hours of exposure to the drug. The data represent the mean of two experiments performed in quadruplicate. B) Activation kinetics. Subsequently, the activation of JNK and p38 was studied using antibodies that specifically recognise the active forms. As a load control, the levels of JNK-1 were detected.
FIG. 4.—Viability of the 293T cell lines: pLNCX, 24.2, DSK5′ and DSK treated with cisplatin. The cell lines described above (pLNCX and 24.2), the DSK 5′ cell line, which expresses a fragment of dyskerin described in the preceding figure, and a fourth one that overexpresses the complete cDNA of dyskerin (DSK) have been used. The viability was analyzed as shown in FIG. 1 A. The data represent the mean of two experiments performed in quadruplicate. […]
Growth curves. […] The number of cells was determined by estimating the absorbance at 595 nm. […]

telomerase = telomerase (Homo sapiens, UniProt O14746); test: Telomerase activity (TRAP) of 293T cell lines treated with cisplatin; assay type: cell-based; design: endogenous in cells; host or cells: 293T cells stably transfected with empty pLNCX or pLNCX 24.2; details: pre-treated 0.5 μg/ml 3 days, then 3 μg/ml cisplatin for 7 days
Sequence of telomerase (O14746 whole entry): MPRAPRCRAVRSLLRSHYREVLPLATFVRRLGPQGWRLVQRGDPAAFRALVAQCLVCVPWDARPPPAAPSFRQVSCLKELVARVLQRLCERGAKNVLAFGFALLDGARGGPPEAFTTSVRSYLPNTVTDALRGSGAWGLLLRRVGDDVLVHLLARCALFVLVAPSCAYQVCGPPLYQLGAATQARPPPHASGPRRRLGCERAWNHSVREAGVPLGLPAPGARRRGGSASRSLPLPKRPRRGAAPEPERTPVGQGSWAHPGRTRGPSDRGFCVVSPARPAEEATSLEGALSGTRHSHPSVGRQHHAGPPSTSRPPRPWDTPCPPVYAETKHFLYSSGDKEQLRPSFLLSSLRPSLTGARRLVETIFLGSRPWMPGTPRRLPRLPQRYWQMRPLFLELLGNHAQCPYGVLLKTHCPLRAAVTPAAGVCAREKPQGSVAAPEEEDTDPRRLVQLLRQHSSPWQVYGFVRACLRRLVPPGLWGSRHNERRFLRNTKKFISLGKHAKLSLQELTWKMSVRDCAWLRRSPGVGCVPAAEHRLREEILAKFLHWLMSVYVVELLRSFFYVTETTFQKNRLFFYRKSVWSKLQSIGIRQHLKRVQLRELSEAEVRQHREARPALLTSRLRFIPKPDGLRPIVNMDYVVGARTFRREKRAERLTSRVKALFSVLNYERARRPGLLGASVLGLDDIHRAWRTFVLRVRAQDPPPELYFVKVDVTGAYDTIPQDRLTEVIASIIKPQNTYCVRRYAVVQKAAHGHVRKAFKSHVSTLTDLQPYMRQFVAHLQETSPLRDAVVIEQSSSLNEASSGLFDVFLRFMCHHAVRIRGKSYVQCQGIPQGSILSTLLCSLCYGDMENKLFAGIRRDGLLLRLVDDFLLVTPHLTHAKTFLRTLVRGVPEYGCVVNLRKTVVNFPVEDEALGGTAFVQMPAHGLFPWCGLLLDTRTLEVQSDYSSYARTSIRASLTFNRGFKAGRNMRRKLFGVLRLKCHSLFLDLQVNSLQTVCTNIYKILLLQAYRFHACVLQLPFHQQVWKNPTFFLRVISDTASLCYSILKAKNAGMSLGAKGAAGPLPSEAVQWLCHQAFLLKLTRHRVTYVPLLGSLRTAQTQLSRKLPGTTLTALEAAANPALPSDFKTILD
Sequence of telomerase (O60832 2-514 partner limits assumed): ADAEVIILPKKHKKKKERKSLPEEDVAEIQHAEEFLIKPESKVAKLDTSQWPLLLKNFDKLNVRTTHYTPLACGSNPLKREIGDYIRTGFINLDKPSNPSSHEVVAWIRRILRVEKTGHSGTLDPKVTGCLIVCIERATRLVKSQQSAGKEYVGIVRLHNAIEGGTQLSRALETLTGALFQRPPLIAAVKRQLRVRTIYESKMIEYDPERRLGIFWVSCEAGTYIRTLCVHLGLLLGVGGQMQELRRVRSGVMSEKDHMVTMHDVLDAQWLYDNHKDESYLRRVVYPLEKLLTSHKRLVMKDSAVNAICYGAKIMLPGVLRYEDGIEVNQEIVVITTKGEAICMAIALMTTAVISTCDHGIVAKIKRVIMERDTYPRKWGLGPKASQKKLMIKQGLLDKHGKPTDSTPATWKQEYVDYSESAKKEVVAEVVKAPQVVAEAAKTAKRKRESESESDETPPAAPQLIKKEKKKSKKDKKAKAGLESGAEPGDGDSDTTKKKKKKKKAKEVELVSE
Sequence of telomerase (Q9NPE3 whole entry partner): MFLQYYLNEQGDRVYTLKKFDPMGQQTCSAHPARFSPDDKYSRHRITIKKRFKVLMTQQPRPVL
Sequence of telomerase (Q9NX24 whole entry partner): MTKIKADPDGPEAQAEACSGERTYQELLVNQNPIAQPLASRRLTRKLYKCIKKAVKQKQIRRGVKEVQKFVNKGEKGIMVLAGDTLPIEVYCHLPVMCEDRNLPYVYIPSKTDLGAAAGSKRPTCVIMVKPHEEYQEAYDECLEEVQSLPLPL
Sequence of telomerase (Q9NY12 whole entry partner): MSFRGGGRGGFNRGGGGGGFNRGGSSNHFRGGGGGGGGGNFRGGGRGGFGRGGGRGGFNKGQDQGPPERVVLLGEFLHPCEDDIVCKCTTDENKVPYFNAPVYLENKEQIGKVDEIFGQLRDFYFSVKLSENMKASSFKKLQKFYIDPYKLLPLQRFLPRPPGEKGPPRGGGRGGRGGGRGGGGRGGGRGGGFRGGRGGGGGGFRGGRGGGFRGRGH
Sequence of telomerase (Q9BUR4 whole entry partner): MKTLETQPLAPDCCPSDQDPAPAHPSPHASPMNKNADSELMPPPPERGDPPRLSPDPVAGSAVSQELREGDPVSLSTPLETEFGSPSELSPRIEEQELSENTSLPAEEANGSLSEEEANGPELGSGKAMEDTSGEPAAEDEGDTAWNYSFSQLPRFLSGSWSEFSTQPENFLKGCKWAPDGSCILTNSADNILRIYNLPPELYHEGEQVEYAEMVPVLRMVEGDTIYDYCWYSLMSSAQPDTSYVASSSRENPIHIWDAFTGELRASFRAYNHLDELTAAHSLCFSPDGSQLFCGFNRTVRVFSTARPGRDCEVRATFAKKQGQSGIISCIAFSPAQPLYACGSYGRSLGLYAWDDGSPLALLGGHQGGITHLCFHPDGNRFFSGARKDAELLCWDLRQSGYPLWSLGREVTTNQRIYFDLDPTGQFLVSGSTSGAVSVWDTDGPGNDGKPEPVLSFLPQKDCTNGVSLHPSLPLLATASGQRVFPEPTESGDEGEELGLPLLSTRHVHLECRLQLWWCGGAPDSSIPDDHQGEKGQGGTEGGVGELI
Description: FIG. 5.—Telomerase activity of the 293T cell lines: pLNCX and 24.2 following treatment with cisplatin. The cells were seeded in 60-mm plates, pre-treated with 0.5 μg/ml of cisplatin for 3 days and subsequently treated with cisplatin at a dose of 3 μg/ml […]. The telomerase activity was measured by means of the Intergen TRAPeze assay. The experiment was performed 3 times, with similar results.
To this end, an assay of telomerase activity was performed using the TRAP method with the pLNCX and pLNCX 24.2 cell lines (FIG. 5), pre-treating them for 3 days with 0.5 μg/ml of cisplatin; subsequently, they were treated with 3 μg/ml of cisplatin for 3 and 7 days. […]
Telomerase activity assay based on the TRAP method Wright et al., 1995). The telomerase activity was measured using the TRAPeze telomerase detection kit (Intergen) in accordance with the instruction manual. The protein concentration of each extract was quantified by means of the Bradford method using the BIORAD reagent and after performing a PCR in accordance with the manual instructions; polyacrylamide gel electrophoresis was performed with the reaction products under non-denaturing conditions and, subsequently, it was stained with Ethidium bromide for 30 minutes.

B1: GSE 24.2: 165-pb cDNA fragment (nucleotides 268 to 433) of human dyskerin, SEQ ID NO1, encoding peptide SEQ ID NO2, expressed from pLNCX plasmid (nucleic acid, listed as Homo sapiens)
DNA: GGTTTCATTAATCTTGACAAGCCCTCTAACCCCTCTTCCCATGAGGTGGTAGCCTGGATTCGACGGATACTTCGGGTGGAGAAGACAGGGCACAGTGGTACTCTGGATCCCAAGGTGACTGGTTGTTTAATCGTGTGCATAGAACGAGCCACTCGCTTGGTGAAG
modifications: expressed from pLNCX plasmid; CDS (1)..(165) Sequence GSE 24.2
In the case of B1, the “cell viability in response to cisplatin” value (293T cells) is reported as “greater viability in response to cisplatin; also recorded: survival capacity to cisplatin” and the “inhibition of telomerase activity by cisplatin in 24.2 cell line” value (telomerase) is reported as “no inhibition was observed”.
